# Columns and labels:
# [1] = target: the molecule itself; test: SEC-MALS; Superdex 200 Increase 10/30; 20 mM Tris/acetate pH 7.6, 150 mM NaCl, 0.1 mM EDTA, 0.1 mM PMSF, 2 mM DTT; 200–250 μg of HspB8 WT or R29A, or 400 μg of Δ28–32 loaded
# [2] = target: the molecule itself; test: SEC-MALS; Superdex 200 Increase 10/30; buffer D (20 mM Tris/acetate pH 7.6, 150 mM NaCl, 0.1 mM EDTA, 0.1 mM PMSF) without any reducing agents; 200–250 μg of oxidized HspB8Cys loaded
protein,measurement,setting,value
"HspB8 R29A mutant (natural protein, human, UniProt Q9UJY1 1-196, looked up, human HspB8 (Hsp22), Uniprot Q9UJY1, carrying the R29A mutation; calculated Mw of monomer 21.5 kDa; No tag is named) MADGQMPFSCHYPSRLRRDPFRDSPLSSALLDDGFGMDPFPDDLTASWPDWALPRLSSAWPGTLRSGMVPRGPTATARFGVPAEGRTPPPFPGEPWKVCVNVHSFKPEELMVKTKDGYVEVSGKHEEKQQEGGIVSKNFTKKIQLPAEVDPVTVFASLSPEGLLIIEAPQVPPYSTFGESSFNNELPQDSQEVTCT",binding result,[1],binds
"oxidized Cys mutant of HspB8 (C10S/C99S/C195S/N138C) (natural protein, human, UniProt Q9UJY1 1-196, looked up, engineered disulfide bridge between the Cys138 residues of two chains (oxidized form), human HspB8 (Hsp22), Uniprot Q9UJY1, with the C10S/C99S/C195S/N138C amino acid substitutions; calculated Mw of monomer 21.5 kDa; The dimer is covalent (S-S crosslinked) after oxidation; No tag is named; also called HspB8Cys; oxidized HspB8Cys; source: oxidized by overnight dialysis) MADGQMPFSSHYPSRLRRDPFRDSPLSSRLLDDGFGMDPFPDDLTASWPDWALPRLSSAWPGTLRSGMVPRGPTATARFGVPAEGRTPPPFPGEPWKVSVNVHSFKPEELMVKTKDGYVEVSGKHEEKQQEGGIVSKCFTKKIQLPAEVDPVTVFASLSPEGLLIIEAPQVPPYSTFGESSFNNELPQDSQEVTST",stoichiometry N,[2],2
"HspB8 Δ28–32 mutant (natural protein, human, UniProt Q9UJY1 1-196, looked up, human HspB8 (Hsp22), Uniprot Q9UJY1, with the pentapeptide 28SRLLD32 deleted; calculated Mw of monomer 21.0 kDa; Made by PCR from the HspB8 WT cDNA and ligated into pET23 via NdeI and XhoI; No tag is named; also called Δ mutant; deletion mutant of HspB8) MADGQMPFSCHYPSRLRRDPFRDSPLSDGFGMDPFPDDLTASWPDWALPRLSSAWPGTLRSGMVPRGPTATARFGVPAEGRTPPPFPGEPWKVCVNVHSFKPEELMVKTKDGYVEVSGKHEEKQQEGGIVSKNFTKKIQLPAEVDPVTVFASLSPEGLLIIEAPQVPPYSTFGESSFNNELPQDSQEVTCT",stoichiometry N,[1],2

# Reference: article PMC8213154, “Replacement of Arg in the conserved N-terminal RLFDQxFG motif affects physico-chemical properties and chaperone-like activity of human small heat shock protein HspB8 (Hsp22)” (PLoS ONE, 2021)
